Reference: patent US20180142016A1

Molecular target: human ROR1 extracellular domain (ECD) protein (human) (UniProt Q01973)
Experiment: ForteBio Octet; pseudo association rate of Wnt5a binding to ROR1 in the presence of the negative control antibody, not a rate of the antibody itself

human ROR1 extracellular domain (ECD) protein (human), sequence (Q01973 30-406 limits assumed): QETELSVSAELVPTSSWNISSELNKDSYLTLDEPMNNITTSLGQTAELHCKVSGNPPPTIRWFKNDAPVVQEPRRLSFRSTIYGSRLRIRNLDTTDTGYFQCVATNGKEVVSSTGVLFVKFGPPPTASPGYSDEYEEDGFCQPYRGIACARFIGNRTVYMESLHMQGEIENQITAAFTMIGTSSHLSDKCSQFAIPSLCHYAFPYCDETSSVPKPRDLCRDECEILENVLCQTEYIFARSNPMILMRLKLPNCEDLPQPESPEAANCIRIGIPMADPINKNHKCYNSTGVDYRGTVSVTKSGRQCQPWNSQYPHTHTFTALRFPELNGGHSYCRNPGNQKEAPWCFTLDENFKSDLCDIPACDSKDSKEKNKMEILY

mAb Control (antibody)
Pesudo ka: 21000 M⁻¹ s⁻¹
